Laboratory results: PMC11025796

Legend:
[1] = target: HrGH45, endogenous glycosylated GH45 endo-1,4-β-D-glucanase from the red abalone (Haliotis rufescens) (Haliotis rufescens); assay: SEC; calibrated gel filtration on an Agilent Bio SEC-3 HPLC column; 0.1 mg/mL HrGH45 in buffer A (50 mM sodium acetate pH 6.0, 200 mM NaCl, 1 mM EDTA, 0.05% NaN3), 1 mL/min; mass in solution compared with the MALDI-TOF mass of the monomer
[2] = target: HrGH45, endogenous glycosylated GH45 endo-1,4-β-D-glucanase from the red abalone (Haliotis rufescens) (Haliotis rufescens); assay: zymography (SDS-PAGE without reducing agent or heating, in-gel cellulase activity); 12% SDS-PAGE gel with 0.1% (w/v) CMC in the resolving phase, sample not reduced and not heated; Triton X-100 wash, overnight at 37°C in buffer A, Congo red stain; a second gel stained with Coomassie

stoichiometry N [1]: 3
stoichiometry N [2]: 3
Substance: HrGH45, endogenous glycosylated GH45 endo-1,4-β-D-glucanase from the red abalone (Haliotis rufescens) (enzyme)
